Data on 63 sequences can be found in the supplement of paper PMC9112550, “Optimization of the antimicrobial peptide Bac7 by deep mutational scanning” (BMC Biology, 2022).
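Note: peptides expressed intracellularly from a pBAD plasmid library in pooled LB shake-flask culture, induced with 0.3% L-arabinose, DNA abundance read by NGS, three biological replicates, DESeq2 with apeglm shrinkage.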

The test system of this data set is Escherichia coli TOP10. The data set is described as follows: shrunken log2 fold change of peptide-encoding DNA abundance (4.5 h post-induction vs induction); higher = less antimicrobial activity (less host growth inhibition). The settings on record: time post-induction: 4.5 h; library: site-saturation at positions 5, 18, 19, 20.
RRIRIRPPRLPRPRPRPALPPRP: the “shrunken log2 fold change” value was -0.0671.

Consider RRIRHRPPRLPRPRPRPALYPRP, for which the “shrunken log2 fold change” value was -0.033.

For the sequence RRIRMRPPRLPRPRPRPRCLPRP, the “shrunken log2 fold change” value is -0.0778.

Take RRIRHRPPRLPRPRPRPTCGPRP: the “shrunken log2 fold change” value worked out at 0.0685.

For the sequence RRIRPRPPRLPRPRPRPRKIPRP, the “shrunken log2 fold change” value was -0.0764.

Turning to RRIRIRPPRLPRPRPRPSEGPRP, the “shrunken log2 fold change” value was -0.0262.

Consider RRIRPRPPRLPRPRPRPLIHPRP, for which the “shrunken log2 fold change” value is -0.472.

Turning to RRIRSRPPRLPRPRPRPIGMPRP, the “shrunken log2 fold change” value was -0.35.

Take RRIRPRPPRLPRPRPRPQDWPRP: the “shrunken log2 fold change” value amounted to 0.0908.

Take RRIRARPPRLPRPRPRPDGVPRP: the “shrunken log2 fold change” value was found to be 0.971.

Turning to RRIRCRPPRLPRPRPRPAKHPRP, the “shrunken log2 fold change” value was -0.23.

In the case of RRIRNRPPRLPRPRPRPWPNPRP, the “shrunken log2 fold change” value was -0.063.

For RRIRTRPPRLPRPRPRPMPKPRP, the “shrunken log2 fold change” value was found to be 0.116.

RRIRNRPPRLPRPRPRPADCPRP: the “shrunken log2 fold change” value came to 0.131.

As to RRIRYRPPRLPRPRPRPNKTPRP, the “shrunken log2 fold change” value was -0.258.

Regarding RRIRSRPPRLPRPRPRPMYKPRP, the “shrunken log2 fold change” value was -1.13.

Turning to RRIRWRPPRLPRPRPRPMAYPRP, the “shrunken log2 fold change” value is -0.0846.

Take RRIRDRPPRLPRPRPRPCKQPRP: the “shrunken log2 fold change” value is -0.00787.

RRIRLRPPRLPRPRPRPIHMPRP: the “shrunken log2 fold change” value is -0.0933.

Take RRIRVRPPRLPRPRPRPPWVPRP: the “shrunken log2 fold change” value came to 0.297.

RRIRERPPRLPRPRPRPQVIPRP: the “shrunken log2 fold change” value is -0.125.

Take RRIRWRPPRLPRPRPRPAVVPRP: the “shrunken log2 fold change” value is 0.0979.

For RRIRYRPPRLPRPRPRPFDHPRP, the “shrunken log2 fold change” value is -0.0332.

On to RRIRNRPPRLPRPRPRPRLTPRP, for which the “shrunken log2 fold change” value was determined as 0.252.

On to RRIRDRPPRLPRPRPRPTFTPRP, for which the “shrunken log2 fold change” value is 0.347.

Take RRIRARPPRLPRPRPRPLVVPRP: the “shrunken log2 fold change” value worked out at 0.194.

Consider RRIRERPPRLPRPRPRPMYPPRP, for which the “shrunken log2 fold change” value is -0.0412.

On to RRIRERPPRLPRPRPRPNVEPRP, for which the “shrunken log2 fold change” value worked out at 0.0609.

Regarding RRIRMRPPRLPRPRPRPCPEPRP, the “shrunken log2 fold change” value was determined as 0.123.

Take RRIRCRPPRLPRPRPRPMPDPRP: the “shrunken log2 fold change” value was -0.0379.

Consider RRIRPRPPRLPRPRPRPRDMPRP, for which the “shrunken log2 fold change” value was found to be 0.201.

With RRIRIRPPRLPRPRPRPEIGPRP, the “shrunken log2 fold change” value was -0.0838.

For the sequence RRIRIRPPRLPRPRPRPRMKPRP, the “shrunken log2 fold change” value is -0.0587.

Consider RRIRWRPPRLPRPRPRPKNMPRP, for which the “shrunken log2 fold change” value is -0.189.

For RRIRCRPPRLPRPRPRPNEPPRP, the “shrunken log2 fold change” value is 0.0197.

As for RRIRGRPPRLPRPRPRPPIFPRP, the “shrunken log2 fold change” value turned out to be 0.35.

In the case of RRIRRRPPRLPRPRPRPHAWPRP, the “shrunken log2 fold change” value turned out to be 0.438.

With RRIRVRPPRLPRPRPRPKYCPRP, the “shrunken log2 fold change” value is -0.221.

Take RRIRRRPPRLPRPRPRPVTQPRP: the “shrunken log2 fold change” value came out at 0.197.

For RRIRRRPPRLPRPRPRPYMIPRP, the “shrunken log2 fold change” value was -0.263.

Regarding RRIRQRPPRLPRPRPRPGSKPRP, the “shrunken log2 fold change” value is -0.00453.

With RRIRIRPPRLPRPRPRPQQLPRP, the “shrunken log2 fold change” value is -0.0183.

For the sequence RRIRWRPPRLPRPRPRPKLDPRP, the “shrunken log2 fold change” value is 0.206.

As for RRIRYRPPRLPRPRPRPEKNPRP, the “shrunken log2 fold change” value was -0.526.

With RRIRDRPPRLPRPRPRPPNWPRP, the “shrunken log2 fold change” value stood at 0.28.

With RRIRSRPPRLPRPRPRPRFHPRP, the “shrunken log2 fold change” value is -0.302.

In the case of RRIRFRPPRLPRPRPRPQMIPRP, the “shrunken log2 fold change” value is -0.484.

On to RRIRTRPPRLPRPRPRPFRTPRP, for which the “shrunken log2 fold change” value is -0.146.

For RRIRNRPPRLPRPRPRPQWMPRP, the “shrunken log2 fold change” value is -0.0995.

In the case of RRIRFRPPRLPRPRPRPMVVPRP, the “shrunken log2 fold change” value was -0.0152.

Consider RRIRTRPPRLPRPRPRPPVWPRP, for which the “shrunken log2 fold change” value turned out to be 0.0152.

On to RRIRKRPPRLPRPRPRPEKQPRP, for which the “shrunken log2 fold change” value was -0.0582.

For the sequence RRIRRRPPRLPRPRPRPNRIPRP, the “shrunken log2 fold change” value worked out at 0.0217.

RRIRWRPPRLPRPRPRPVMDPRP: the “shrunken log2 fold change” value was -0.385.

Regarding RRIRGRPPRLPRPRPRPFIMPRP, the “shrunken log2 fold change” value is -0.285.

On to RRIRARPPRLPRPRPRPHWFPRP, for which the “shrunken log2 fold change” value came out at 0.0804.

RRIRGRPPRLPRPRPRPMNPPRP: the “shrunken log2 fold change” value came out at 0.217.

In the case of RRIRERPPRLPRPRPRPWPFPRP, the “shrunken log2 fold change” value was -0.0819.

In the case of RRIRGRPPRLPRPRPRPSMSPRP, the “shrunken log2 fold change” value stood at 0.453.

Turning to RRIRDRPPRLPRPRPRPNQPPRP, the “shrunken log2 fold change” value was determined as 0.0323.

On to RRIRARPPRLPRPRPRPCQIPRP, for which the “shrunken log2 fold change” value is -0.486.

In the case of RRIRYRPPRLPRPRPRPCAAPRP, the “shrunken log2 fold change” value was -0.642.

For RRIRHRPPRLPRPRPRPGKLPRP, the “shrunken log2 fold change” value came out at 0.169.
